Consider one substance from patent US20230192894A1.

This test addresses canine FcεRIα on the surface of canine mast cell line HMRC cells (canine). The experiment in a line: flow cytometry, FITC-labelled control on canine mast cell line HMRC.

With “mouse IgG2b isotype control labeled with FITC (antibody)”, the median fluorescence intensity was 1720.
